FireProtDB (doi:10.1016/s0167-4838(98)00243-x)

Conditions: Streptomyces sp. (strain N174), pH 7, Thermal, sodium phosphate 50 mM, whole UniProt chain shown
[1] = CD, transition: 3, reversible: yes(85%)
[2] = Fluorescence, reversible: yes(75%)

B1: Chitosanase wild type, P33665 (protein)
chain: MHSQHRTARIALAVVLTAIPASLATAGVGYASTQASTAVKAGAGLDDPHKKEIAMELVSSAENSSLDWKAQYKYIEDIGDGRGYTGGIIGFCSGTGDMLELVQHYTDLEPGNILAKYLPALKKVNGSASHSGLGTPFTKDWATAAKDTVFQQAQNDERDRVYFDPAVSQAKADGLRALGQFAYYDAIVMHGPGNDPTSFGGIRKTAMKKARTPAQGGDETTYLNAFLDARKAAMLTEAAHDDTSRVDTEQRVFLKAGNLDLNPPLKWKTYGDPYVINS
Which Tm [1] does the source give for B1 here?
The Tm was 42.7 °C.

And the “unfolding enthalpy (van 't Hoff)” value [1]?
Its value is 120 kcal/mol.

And the Tm [2]?
Its Tm is 43.2 °C.

And the “unfolding enthalpy (van 't Hoff)” value [2]?
Its value is 161 kcal/mol.
